Results reported in PMC7703590.

Target: SARS-CoV-2 RBD-Fc (SARS-CoV-2) (UniProt P0DTC2)
Assay: BLI

Row | Substance | koff [s⁻¹] | avidity [pM]
1 | IgG1 ab1 (from UniProt P01857) | 4e-05 | 
2 | IgG1 ab1 (antibody) |  | 160
